Consider seven molecules from patent US20250270328A1 (BRIGHAM AND WOMEN S HOSPITAL, published 2025).

Sequences and labels used below:
T1: human KLRB1 expressed on CHO-K1 cells (CHO-hum-KLRB1) (human, UniProt Q12918 1-225)
T1 sequence: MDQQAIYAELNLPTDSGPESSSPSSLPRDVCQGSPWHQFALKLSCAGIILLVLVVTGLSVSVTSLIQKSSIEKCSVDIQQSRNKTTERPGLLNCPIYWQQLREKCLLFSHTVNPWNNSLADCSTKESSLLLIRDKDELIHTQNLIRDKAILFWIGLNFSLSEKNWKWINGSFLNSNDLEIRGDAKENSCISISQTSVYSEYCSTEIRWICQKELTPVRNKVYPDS

T2: human KLRB1 protein extracellular domain (ECD) (human, UniProt Q12918 67-225)
T2 construct: range 67-225; The ELISA and SPR text says only 'human KLRB1 ECD'; also called human KLRB1 ECD; CD161
T2 sequence (looked up): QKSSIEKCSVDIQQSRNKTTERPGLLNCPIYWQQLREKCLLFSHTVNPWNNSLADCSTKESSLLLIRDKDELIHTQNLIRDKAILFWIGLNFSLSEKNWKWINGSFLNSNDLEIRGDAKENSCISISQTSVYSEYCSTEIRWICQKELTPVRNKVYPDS

B1: 10A3D6hum2.2-afuc (afucosylated 10A3D6hum2.2) (antibody, human IgG1, kappa, V domains shown)
VH: QVQLVQSGAEVKKPGASVKVSCKASGYSFTGYTMNWVRQAPGQNLEWIGLINPNTGGTYYNQKFKDRVTLTVDTSISTAYMELSRLRSDDTAVYYCARLGDNYRGYFDSWGQGTTVTVSS
VL: DIQLTQSPSFLSASVGDRVTITCKASQDVGTAVVWYQQKPGKAPKLLIDWASIRHTGVPSRFSGSGSGTEFTLTISSLQPEDFADYFCQQYSTYLYTFGGGTKLEIKR
modifications: Fc N-glycan afucosylated (produced in FUT8 knockout cells). The amino-acid letters are unchanged from 10A3D6hum2.2.
B2: 10A3D6hum1.2 (antibody, V domains shown)
VH: QVQLVQSGAEVKKPGASVKVSCKASGYSFTGYTMNWVRQAPGQGLEWMGLINPNTGGTYYNQKFKDRVTMTRDTSISTAYMELSRLRSDDTAVYYCARLGDNYRGYFDSWGQGTTVTVSS
VL: DIQLTQSPSFLSASVGDRVTITCKASQDVGTAVVWYQQKPGKAPKLLIDWASIRHTGVPSRFSGSGSGTEFTLTISSLQPEDFADYFCQQYSTYLYTFGGGTKLEIKR
modifications: Fluorescently labelled in the competition assay; dye and attachment site not stated.
notes: Humanized antibody; also called 103AD6hum1.2; copies: 2 + 2
B3: 10A3D6hum1.5 (antibody, V domains shown)
VH: QVQLVQSGAEVKKPGASVKVSCKASGYSFTGYTMNWVRQAPGQGLEWMGLINPNTGGTYYNQKFKDRVTMTRDTSISTAYMELSRLRSDDTAVYYCARLGDNYRGYFDSWGQGTTVTVSS
VL: EIVMTQSPATLSVSPGERATLSCKASQDVGTAVVWYQQKPGQAPRLLIDWASIRHTGIPARFSGSGSGTEFTLTISSLQSEDFAVYYCQQYSTYLYTFGGGTKVEIK
notes: Humanized antibody
B4: 10A3D6C109Chum4.5 (antibody, V domains shown)
VH: QVQLVQSGAEVKKPGASVKVSCKASGYSFTGYTMNWVRQAHGQNLEWIGLINPNTGGTYYNQKFKDRATLTVDTSISTAYMELSRLRSDDTAVYYCARLGDNYRGYFDCWGQGTTVTVSS
VL: EIVMTQSPATLSVSPGERATLSCKASQDVGTAVVWYQQKPGQAPRLLIDWASIRHTGIPARFSGSGSGTEFTLTISSLQSEDFAVYYCQQYSTYLYTFGGGTKVEIK
notes: Humanized variant of 10A3D6 made by CDR grafting
B5: 10A3D6hum2.2 (antibody, human IgG1, kappa, V domains shown)
VH: QVQLVQSGAEVKKPGASVKVSCKASGYSFTGYTMNWVRQAPGQNLEWIGLINPNTGGTYYNQKFKDRVTLTVDTSISTAYMELSRLRSDDTAVYYCARLGDNYRGYFDSWGQGTTVTVSS
VL: DIQLTQSPSFLSASVGDRVTITCKASQDVGTAVVWYQQKPGKAPKLLIDWASIRHTGVPSRFSGSGSGTEFTLTISSLQPEDFADYFCQQYSTYLYTFGGGTKLEIKR
notes: copies: 2 + 2
B6: 10A3D6C109Chum5.5 (antibody, V domains shown)
VH: QVQLVQSGAEVKKPGASVKVSCKASGYSFTGYTMNWVRQAPGQNLEWMGLINPNTGGTYYNQKFKDRVTLTVDTSISTAYMELSRLRSDDTVVYYCARLGDNYRGYFDCWGQGTLVTVSS
VL: EIVMTQSPATLSVSPGERATLSCKASQDVGTAVVWYQQKPGQAPRLLIDWASIRHTGIPARFSGSGSGTEFTLTISSLQSEDFAVYYCQQYSTYLYTFGGGTKVEIK
notes: as for B4
B7: 10A3D6-hIgG1k (mouse/human chimeric antibody with 10A3D6 variable regions and human IgG1-kappa constant regions) (antibody)
heavy: not shown
light: DIVMTQSHKFMSTSVGDRVNITCKASQDVGTAVVWYQQTPGQSPKVLIDWASIRHTGVPDRFTGSGSGTDFTLTISSVQSEDLADYFCQQYSTYLYTFGGGTKLEIKRTVAAPSVFIFPPSDEQLKSGTASVVCLLNNFYPREAKVQWKVDNALQSGNSQESVTEQDSKDSTYSLSSTLTLSKADYEKHKVYACEVTHQGLSSPVTKSFNRGEC
notes: also called 10A3D6-chimeric; 10A3D6-hIgGlk; copies: 2 + 2

One test deals with T1, human KLRB1 expressed on CHO-K1 cells …. Description: cell-based or functional assay.
Consider B1, for which the “ADCC target cell killing EC50 (flow cytometry, human NK cells)” value was determined as 0.01 nM.

The next test addresses T2, human KLRB1 protein extracellular …. Description: SPR, human KLRB1 ECD; format not stated. As to the method:
The chimeric antibody 10A3D6-hIgGlk (a mouse/human chimeric antibody with 10A3D6 variable regions and human IgG1-kappa constant regions), chimeric mutated variants (10A3D6C109S, 10A3D6C109F, and 10A3D6C109V), and humanized variants of 10A3D6 created by CDR grafting (Almagro et al. 2008) were assayed for binding against human KLRB1 extracellular domain (ECD) via surface plasma resonance (SPR).
Background: In SPR one partner is held on a chip, and binding of the other changes the refractive index at the surface.
In turn, B2 had an equilibrium dissociation constant (Kd) of 0.147 nM, a koff of 0.000183 s⁻¹ and an on-rate (kon) of 1.24e+06 M⁻¹ s⁻¹.

Molecule B3 gave a Kd of 0.111 nM, a koff of 0.000178 s⁻¹ and a kon of 1.6e+06 M⁻¹ s⁻¹.

B4 came in with a Kd of 0.127 nM, a koff of 0.000107 s⁻¹ and an on-rate constant (kon) of 843000 M⁻¹ s⁻¹.

The molecule B5 came in with a Kd of 0.131 nM, a dissociation rate constant (koff) of 0.000139 s⁻¹ and a kon of 1.07e+06 M⁻¹ s⁻¹.

The molecule B6 showed a Kd of 0.17 nM, a koff of 0.000139 s⁻¹ and a kon of 816000 M⁻¹ s⁻¹.

The molecule B7 registered a Kd of 0.172 nM, a koff of 0.000191 s⁻¹ and a kon of 1.11e+06 M⁻¹ s⁻¹.

In general, Kd refers to the equilibrium constant for the complex coming apart. Read a high Kd as a looser complex. The term koff denotes the rate constant with which the complex falls apart. A low value points to slow dissociation. Usually kon stands for the rate constant with which the complex forms. Low readings indicate slower complex formation, high ones faster complex formation.
